Measured values from US20240181094A1, “[161Tb]-BASED RADIOPEPTIDES” (priority 2021, published 2024).
Starred links: 1 amine or outer side, 2 acyl side, 3 side chain; linkers in the order of their positions; H or OH if unused. Positions of bridges follow the written chain, without caps; N, C: chain ends. Non-standard residues stand in square brackets, D forms with d. Residues, ends and D or L forms follow the SMILES beside them. *: point of attachment. DOTA = O=C(O)CN1CCN(CC(=O)O)CCN(CC(=O)*)CCN(CC(=O)O)CC1; X1 = NC(=O)Nc1ccc(CC(N[*:1])C(=O)[*:2])cc1; Phe(4-Cl) = N[CH](Cc1ccc(Cl)cc1)C(=O)O

How the values were obtained:
AR42J tumor-bearing mice [1] = conditions: female, CD-1 Foxn-1/nu athymic nude, mouse, in vivo, iv, 1 nmol/mouse, 24 h
AR42J tumor-bearing mice [2] = assay: Biodistribution studies: comparison of 161Tb- and 177Lu-labeled peptides; conditions: 1 nmol/mouse, 2 h p.i.
in vivo = conditions: female, mouse, iv, 1 nmol/mouse, total radioactivity

## CC(O)C1NC(=O)C(CCCCN)NC(=O)C(Cc2ccc(NC(N)=O)cc2)NC(=O)C(Cc2ccc(O)cc2)NC(=O)C(NC(=O)C(Cc2ccc(Cl)cc2)NC(=O)CN2CCN(CC(=O)O)CCN(CC(=O)O)CCN(CC(=O)O)CC2)CSSCC(C(=O)NC(Cc2ccc(O)cc2)C(N)=O)NC1=O (stereo not shown) [metal not drawn] ({DOTA}-[Phe(4-Cl)]CY[X1]KTCY-NH2; disulfide 2-7; configuration not given here)
AR42J tumor-bearing mice [1]
  Muscle uptake: ≤0.10 % IA/g
AR42J tumor-bearing mice [2]
  Femur uptake: 0.20 ± 0.05 % IA/g
  Lung uptake: 1.0 ± 0.2 % IA/g
In vivo; CD-1 Foxn-1/nu athymic nude
  tissue uptake at 2 h: ≤ 0.1 %ID/g
  tissue uptake at 24 h: ≤ 0.1 %ID/g
In vivo; athymic nude CD-1 Foxn-1/nu
  tissue uptake at 2 h: ≤ 0.1 %ID/g
  tissue uptake at 24 h: ≤ 0.1 %ID/g
